Series [1] is described as follows: Intravital imaging of IRDye 800CW-labeled Dj1 after tail-vein injection. It counts as in vivo, mouse. The note with it: WT mice. The procedure: Recombinant mouse Dj1 protein (NBP2-59523, Novus) were labeled with near-infrared dyes using IRDye 800CW protein labeling kit-Low MW (Li-COR Biosciences) as described in the manufacturer's instructions. 10 μg of labeled Dj1 protein was injected into wild-type C57BL/6J mouse through the tail vein. The mice were imaged at the indicated time using an IVIS Spectrum (PerkinElmer). For tissue analysis, recipient mice were euthanized by cervical dislocation, and tissues were then dissected and imaged. Fluorescence was detected using excitation and emission filters at 745 nm and 800 nm, respectively.
(§1) Myokines contribute to whole-body metabolism by directly signaling to distant organs (15-18). To determine which organs Dj1 targets, WT mice were tail-vein injected with a recombinant Dj1 (rDj1) protein labeled with the near-infrared fluorescent dye IRDye 800CW, and the fluorescent signals were tracked using an optical imaging system (FIGS. 3I, 3J). A robust fluorescent signal could be detected within 5 minutes post-injection. […] Considering that the reagents injected through tail-vein often nonspecifically target the liver, fluorescent-labeled rDj1 was used to determine whether Dj1 could bind to the plasma membrane of liver cells. rDj1 was labeled with Alex 488 and added into the medium of mouse liver cells (AML12 cells) at the indicated time.

In series [2] the test system is AML12 cells. Kind of series: Fluorescent-labeled rDj1 binding to plasma membrane of liver cells. It counts as cell-based, mouse. The conditions noted are these: Alex 488-labeled rDj1 added to medium, fluorescent microscopy. The procedure: as §1
Series [3] has as its system HepG2 cells. Briefly: OCR/ECAR and mitochondrial ATP production in HepG2 cells. Format: cell-based, human. As to the method:
Mouse myoblast cells (C2C12) were maintained in high glucose DMEM/high, 10% fetal bovine serum with penicillin/streptomycin. pRK5-Dj1-HA plasmid was purchased from Addgene (#29396). Seeded cells were cultured in 6-well plates for 24 hours prior to transfection. Transfections were performed using Lipofectamine 2000 and PLUS reagent according to manufacturer instructions (Invitrogen, Carlsbad, CA). Human HepG2 cells were cultured in DMEM/low media containing 10% fetal bovine serum with penicillin/streptomycin. Mouse AML12 cells were maintained in DMEM/F12, ITS supplement (Gibco, USA), 40 ng/ml dexamethasone, and 10% fetal bovine serum with penicillin/streptomycin. For in vitro experiments, HepG2 cells were treated with or without recombinant human Dj1 protein (Novus, NBC1-18334) in serum-free media containing 25 mM glucose, 200 μM palmitic acid, and 0.25% bovine serum albumin for an indicated time.

Series [4] has as its system AMPK signaling. Kind of series: RNA sequencing analysis of HepG2 cells. Format: cell-based, human.
Series [5] has as its system NC-fed C57BL/6J mice. Kind of series: rDj1 tail-vein injection daily for 5 days in NC-fed mice. The note with it: 0.15 mg/kg/day IV for 5 days. It counts as in vivo, mouse. As to the method:
C57BL/10cSn-Dmd^mdx/J (001801, mdx) and C57BL/10ScSnJ (000476, WT) mice were ordered directly from The Jackson Laboratory. Different ages of mdx and WT mice were obtained. Animals were weaned 21 days after birth and had free access to food and water and were housed on 12 h light-dark cycle. C57BL/6J males were introduced to a normal diet (NC, Research Diets D15100601) or high-fat diet (HFD, Research Diets D12331), and maintained on a diet for the indicated time. The HFD diet derives 58% of its kilocalories (kcal) from fat (soybean and coconut oil), 25.5% from carbohydrates (sucrose and maltodextrin), and 16.4% from protein (casein). NASH model mice were fed for up to 28 weeks with the NASH diet (Envigo, TD.120528) and 42% fructose (Sigma, F0127) in the water (1,2). The NASH diet is composed of 405.36 g/Kg sucrose and 12.5 g/Kg cholesterol. Recombinant mouse Dj1 protein (Novus, NBP2-59523) or truncated mouse Dj1 (tDj1, GenScript) protein was intravenously injected every day for 5 days or every other day for 2 weeks. Skeletal muscle-specific Park7 knockout mice were generated by crossing Park7 flox mice with Myl1-cre mice (JAX, #024713). Mice were raised in microisolator cages with a 12 h: 12 h light: dark cycle. […]
Plasma and liver NEFA, Cholesterol, and Triglyceride were analyzed by their respective kits (FUJIFILM Wako Diagnostics) […]

Series [6] has as its system HFD-fed C57BL/6J mice. Briefly: rDj1 tail-vein injection daily for 5 days in HFD-fed mice. Format: in vivo, mouse. As to the method:
C57BL/10cSn-Dmd^mdx/J (001801, mdx) and C57BL/10ScSnJ (000476, WT) mice were ordered directly from The Jackson Laboratory. Different ages of mdx and WT mice were obtained. Animals were weaned 21 days after birth and had free access to food and water and were housed on 12 h light-dark cycle. C57BL/6J males were introduced to a normal diet (NC, Research Diets D15100601) or high-fat diet (HFD, Research Diets D12331), and maintained on a diet for the indicated time. The HFD diet derives 58% of its kilocalories (kcal) from fat (soybean and coconut oil), 25.5% from carbohydrates (sucrose and maltodextrin), and 16.4% from protein (casein). NASH model mice were fed for up to 28 weeks with the NASH diet (Envigo, TD.120528) and 42% fructose (Sigma, F0127) in the water (1,2). The NASH diet is composed of 405.36 g/Kg sucrose and 12.5 g/Kg cholesterol. Recombinant mouse Dj1 protein (Novus, NBP2-59523) or truncated mouse Dj1 (tDj1, GenScript) protein was intravenously injected every day for 5 days or every other day for 2 weeks. Skeletal muscle-specific Park7 knockout mice were generated by crossing Park7 flox mice with Myl1-cre mice (JAX, #024713). Mice were raised in microisolator cages with a 12 h: 12 h light: dark cycle. All procedures were performed in accordance with the Guide for Care and Use of Laboratory Animals of the National Institutes of Health, and were approved by the Animal Subjects Committee of the University of California, Los Angeles.
Cryosections (10-μm thick transverse sections of frozen muscle cut in a cryostat (Leica) at −20° C.) were subjected to hematoxylin & eosin (H&E) staining (10, 54). Liver tissues were fixed in phosphate-buffered 10% formalin and embedded in paraffin wax. Sections were cut and stained with H&E.
Plasma and liver NEFA, Cholesterol, and Triglyceride were analyzed by their respective kits (FUJIFILM Wako Diagnostics)
About 80 mg of liver samples were homogenized and sonicated in PBS (pH 7.4) for lipid extraction. An internal standard mixture (ISTD) and CHCl3:methanol (2:1) were added to the samples before being vortexed, mixed, sonicated, and centrifuged. The supernatant containing the lipid was removed and dried, the lipids were resuspended in ethanol and then sonicated.
AMPK signaling is vital for lipid metabolism in the liver (19). […] These findings indicate that Dj1 could enhance lipid metabolism and ameliorate HFD-induced hepatic steatosis. rDj1 was tail-vein injected into mice fed with a chow diet (NC) or high-fat diet (HFD) daily for 5 days. […] Although body weights and fasting blood glucose levels of HFD-fed mice were unchanged during the rDj1 administration, rDj1 indeed enhanced glucose homeostasis and insulin action, as evidenced by improving glucose tolerance tests and insulin tolerance tests, respectively (FIGS. 4K-4M, 4U-4Z).

Series [7] concerns HFD-fed mice. Kind of series: Indirect calorimetry in HFD-fed mice. Format: in vivo, mouse. The procedure:
Elevated AMPK signaling and reduced lipid content in the liver led to the hypothesis that rDj1 might activate the whole-body energy metabolism of mouse. Therefore, the metabolic rate was determined in HFD-fed mice by indirect calorimetry.

The subject of series [8] is mitochondrial complex II. Briefly: Complex II activity of isolated liver mitochondria from treated HFD-fed mice. Format: in vivo, mouse.
The test system of series [9] is JNK. Briefly: JNK phosphorylation immunoblot in liver of HFD-fed mice. Format: in vivo, mouse. From the text:
As described above, Dj1 administration stimulates AMPK phosphorylation in the liver cells. However, elevated AMPK phosphorylation in vivo was not observed (data not shown). Numerous studies have reported that the c-Jun N terminal kinase (JNK) is critical to the development of steatosis and chronic liver injury in NAFLD (22-25). […] However, not all MAPK pathways were activated. For example, phosphorylation of p42 was not altered by tDj1 treatment (FIG. 6O). Both rDj1 and tDj1 suppressed TNFα and Anisomycin-induced JNK (p54 and p46) phosphorylation in human HepG2 and mouse AML12 liver cells, respectively (FIGS. 6C-6D).
In general terms: In western blotting, separated proteins are transferred to a membrane and probed.

B1: rDj1: full-length recombinant Dj1 protein; mouse protein (Novus, NBP2-59523) injected in mice, human protein used in HepG2 cells (protein, UniProt Q99LX0 1-189, looked up)
chain: MASKRALVILAKGAEEMETVIPVDVMRRAGIKVTVAGLAGKDPVQCSRDVMICPDTSLEDAKTQGPYDVVVLPGGNLGAQNLSESPMVKEILKEQESRKGLIAAICAGPTALLAHEVGFGCKVTTHPLAKDKMMNGSHYSYSESRVEKDGLILTSRGPGTSFEFALAIVEALVGKDMANQVKAPLVLKD
modifications: full-length
notes: full-length recombinant Dj1 protein; mouse protein (Novus, NBP2-59523) injected in mice, human protein used in HepG2 cells
Regarding B1, the “organs in which most fluorescent signals accumulated” value in series [1] (4 hours post-injection, tail-vein) was “accumulated in the liver, kidney, and urine”. Moreover, in series [1] (IRDye 800CW-labeled rDj1, tail-vein), the “time until robust fluorescent signal detected post-injection” value was ≤ 5 min. Further, the “localization of labeled rDj1 on liver cells” value in [2] is recorded as “colocalized with the plasma membrane”. For the same molecule, in series [3], the “mitochondrial ATP production rate” value was “enhanced” and the “oxygen consumption rate/extracellular acidification rate (OCR/ECAR)” value is “enhanced”. Further, in series [4], the “AMPK signaling (RNA sequencing analysis)” value is on record as “upregulated”. Also, in series [5], the plasma cholesterol levels result is given as “significantly reduced” and the “plasma non-esterified fatty acids (NEFA)” value is given as “significantly reduced”. For the same molecule, in [6] (0.15 mg/kg/day IV for 5 days), the “TGs levels in the liver” value is reported as “decreasing”, the glucose tolerance tests entry is reported as “improving” and the insulin tolerance tests result is on record as “improving”. In addition, the “liver H&E staining, lipids” value in [6] (daily for 5 days) was “fewer lipids”. Moreover, in series [6] (during rDj1 administration), the body weights entry is given as “unchanged” and the “fasting blood glucose levels” value is given as “unchanged”. Moreover, in [7], the “energy expenditure (EE)” value is given as “elevated”, the “oxygen consumption (VO2)” value was “elevated” and the “respiratory exchange ratio (RER)” value is “reducing”. Also, the “mitochondrial complex II activity” value in series [8] is recorded as “Enhanced”. Moreover, the “JNK (p46 subunit) phosphorylation” value in series [9] is on record as “significantly reduced”.

The values are drawn from patent US20250339501A1, “COMPOSITIONS AND METHODS FOR TREATING METABOLIC DISEASE” (The Regents of the University of California, priority 2021, published 2025).
